Usually Km stands for the concentration of substrate that gives half-maximal velocity. Broadly, the kcat is the maximal rate divided by the concentration of active sites. What is called kcat/Km is the second-order rate constant that governs catalysis at low substrate concentration.

In series [1] the target is T1, UGT76G1 (Stevia rebaudiana, UniProt Q6VAB4, H25A).
T1 construct: synthetic gene in pET21a (NdeI/XhoI), C-terminal hexa-histidine tag, E. coli BL21 (DE3), monomer
Description: X-ray crystal structure. The following applies: sodium citrate pH 5.4, PEG 4000; 1 mM UDP. It counts as binding.

Series [2] concerns the target T2, UGT76G1 (Stevia rebaudiana, UniProt Q6VAB4).
T2 construct: synthetic gene in pET21a (NdeI/XhoI), C-terminal hexa-histidine tag, E. coli BL21 (DE3), monomer
T2 sequence (Q6VAB4 1-458): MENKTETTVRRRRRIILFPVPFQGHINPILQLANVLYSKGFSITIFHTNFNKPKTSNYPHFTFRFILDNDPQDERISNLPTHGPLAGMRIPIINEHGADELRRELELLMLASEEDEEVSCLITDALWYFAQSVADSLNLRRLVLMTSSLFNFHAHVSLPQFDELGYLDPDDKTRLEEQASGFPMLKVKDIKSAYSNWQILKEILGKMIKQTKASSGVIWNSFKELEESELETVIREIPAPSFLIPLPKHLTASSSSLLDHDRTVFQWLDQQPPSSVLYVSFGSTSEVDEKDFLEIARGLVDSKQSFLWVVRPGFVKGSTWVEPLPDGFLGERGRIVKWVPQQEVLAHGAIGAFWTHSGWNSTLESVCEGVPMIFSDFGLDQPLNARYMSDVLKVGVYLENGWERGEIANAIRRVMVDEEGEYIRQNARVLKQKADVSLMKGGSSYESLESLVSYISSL
Description: X-ray crystal structure. It counts as binding.

Substrate in series [3]: C=C1C[C@@]23CC[C@H]4[C@@](C)(CCC[C@@]4(C)C(=O)O[C@@H]4O[C@H](CO)[C@@H](O)[C@H](O)[C@H]4O)[C@@H]2CC[C@]1(O[C@@H]1O[C@H](CO)[C@@H](O)[C@H](O)[C@H]1O[C@@H]1O[C@H](CO)[C@@H](O)[C@H](O)[C@H]1O)C3
In words: purified protein. To be noted: UDPG 100 μM; transfer at R1 (initial rate, <10% consumption).

Substrate in series [4]: C=C1C[C@@]23CC[C@H]4[C@@](C)(CCC[C@@]4(C)C(=O)O[C@@H]4O[C@H](CO)[C@@H](O)[C@H](O)[C@H]4O)[C@@H]2CC[C@]1(O[C@@H]1O[C@H](CO)[C@@H](O)[C@H](O[C@@H]2O[C@H](CO)[C@@H](O)[C@H](O)[C@H]2O)[C@H]1O[C@@H]1O[C@H](CO)[C@@H](O)[C@H](O)[C@H]1O)C3
Description: purified protein. To be noted: UDPG 100 μM; transfer at R2.

Substrate in series [5]: C=C1C[C@@]23CC[C@H]4[C@@](C)(CCC[C@@]4(C)C(=O)O)[C@@H]2CC[C@]1(O[C@@H]1O[C@H](CO)[C@@H](O)[C@H](O)[C@H]1O[C@@H]1O[C@H](CO)[C@@H](O)[C@H](O)[C@H]1O)C3
Description: UDP-Glo glycosyltransferase assay, Michaelis-Menten fit. It counts as biochemical, Stevia rebaudiana. To be noted: UDPG 100 μM; transfer at R1. The text has this: (§1) UDP-Glo glycosyltransferase assay, Michaelis-Menten fit on UGT76G1

Substrate in series [6]: C=C1C[C@@]23CC[C@H]4[C@@](C)(CCC[C@@]4(C)C(=O)O[C@@H]4O[C@H](CO)[C@@H](O)[C@H](O)[C@H]4O)[C@@H]2CC[C@]1(O[C@@H]1O[C@H](CO)[C@@H](O)[C@H](O)[C@H]1O)C3
The description is as above. Type of series: biochemical, Stevia rebaudiana. To be noted: UDPG 100 μM; transfer at R1 (initial rate, <10% consumption).
Source text: as §1

Substrate in series [7]: C=C1C[C@@]23CC[C@H]4[C@@](C)(CCC[C@@]4(C)C(=O)O[C@@H]4O[C@H](CO)[C@@H](O)[C@H](O)[C@H]4O[C@@H]4O[C@H](CO)[C@@H](O)[C@H](O)[C@H]4O)[C@@H]2CC[C@]1(O[C@@H]1O[C@H](CO)[C@@H](O)[C@H](O)[C@H]1O[C@@H]1O[C@H](CO)[C@@H](O)[C@H](O)[C@H]1O)C3
Described as above. Type of series: biochemical, Stevia rebaudiana. To be noted: UDPG 100 μM; transfer at R1 (initial rate, <10% consumption).
Source text: as §1

Substrate in series [8]: O=c1ccn([C@@H]2O[C@H](CO[P@@](=O)(O)O[P@@](=O)(O)O[C@H]3O[C@H](CO)[C@@H](O)[C@H](O)[C@H]3O)[C@@H](O)[C@H]2O)c(=O)[nH]1
The description is as above. To be noted: sugar donor; acceptor STB 50 μM. Type of series: biochemical, Stevia rebaudiana.
Source text: as §1

T1 sequence (Q6VAB4 whole entry H25A): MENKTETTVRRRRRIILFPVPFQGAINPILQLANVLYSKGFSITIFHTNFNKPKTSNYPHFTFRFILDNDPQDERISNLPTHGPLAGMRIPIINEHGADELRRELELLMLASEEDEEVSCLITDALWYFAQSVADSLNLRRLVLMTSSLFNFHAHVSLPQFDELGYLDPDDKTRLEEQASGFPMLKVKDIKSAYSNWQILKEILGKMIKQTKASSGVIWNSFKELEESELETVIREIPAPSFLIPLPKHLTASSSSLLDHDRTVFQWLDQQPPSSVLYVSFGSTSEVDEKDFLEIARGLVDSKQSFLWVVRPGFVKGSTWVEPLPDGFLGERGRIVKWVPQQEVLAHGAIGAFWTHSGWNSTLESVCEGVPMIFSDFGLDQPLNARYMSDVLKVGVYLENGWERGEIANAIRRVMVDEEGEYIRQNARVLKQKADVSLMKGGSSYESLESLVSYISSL

As to `O=c1ccn([C@@H]2O[C@H](COP(=O)(O)OP(=O)(O)O)[C@@H](O)[C@H]2O)c(=O)[nH]1` [UDP], the X-ray crystal structure entry in series [1] is “both the wild type and H25A mutant of UGT76G1 with UDP”; in series [2] (sodium citrate pH 5.4, PEG 4000, 1 mM UDP) it was “both the wild type and H25A mutant of UGT76G1 with UDP”.
For the molecule `C=C1C[C@@]23CC[C@H]4[C@@](C)(CCC[C@@]4(C)C(=O)O[C@@H]4O[C@H](CO)[C@@H](O)[C@H](O)[C@H]4O)[C@@H]2CC[C@]1(O[C@@H]1O[C@H](CO)[C@@H](O)[C@H](O)[C@H]1O)C3` [Rubu], the X-ray crystal structure entry in series [2] (ternary complex with UDP, bound at active site, second remote molecule called artifact) was “the wild type with UDP and Rubu”.

B1: UGT76G1 (Stevia rebaudiana) (protein)
chain: MENKTETTVRRRRRIILFPVPFQGHINPILQLANVLYSKGFSITIFHTNFNKPKTSNYPHFTFRFILDNDPQDERISNLPTHGPLAGMRIPIINEHGADELRRELELLMLASEEDEEVSCLITDALWYFAQSVADSLNLRRLVLMTSSLFNFHAHVSLPQFDELGYLDPDDKTRLEEQASGFPMLKVKDIKSAYSNWQILKEILGKMIKQTKASSGVIWNSFKELEESELETVIREIPAPSFLIPLPKHLTASSSSLLDHDRTVFQWLDQQPPSSVLYVSFGSTSEVDEKDFLEIARGLVDSKQSFLWVVRPGFVKGSTWVEPLPDGFLGERGRIVKWVPQQEVLAHGAIGAFWTHSGWNSTLESVCEGVPMIFSDFGLDQPLNARYMSDVLKVGVYLENGWERGEIANAIRRVMVDEEGEYIRQNARVLKQKADVSLMKGGSSYESLESLVSYISSL
notes: synthetic gene in pET21a (NdeI/XhoI), C-terminal hexa-histidine tag, E. coli BL21 (DE3), monomer
As for B1, the Michaelis-Menten constant (Km) turned out to be 25.5 ± 3.4 µM in series [3]; 243.4 ± 28.1 µM in series [4]; 4.8 ± 0.4 µM in series [5]; 54.4 ± 4.0 µM in series [6]; 9.2 ± 0.7 µM in series [7]; 5.6 ± 0.4 µM in series [8]. Also, the catalytic constant (kcat) in series [3] came to 0.697 s⁻¹; in series [4], 0.002 s⁻¹; in series [5], 0.08 ± 0.00167 s⁻¹; in series [6], 0.0983 ± 0.00167 s⁻¹; in series [7], 0.355 ± 0.00833 s⁻¹; in series [8] it was 0.0683 ± 0.00167 s⁻¹. In addition, the specificity constant (kcat/Km) in series [3] was 27300 M⁻¹ s⁻¹; in series [4], 8 M⁻¹ s⁻¹; in series [5], 16500 M⁻¹ s⁻¹; in series [6], 1800 M⁻¹ s⁻¹; in series [7], 38600 M⁻¹ s⁻¹; in series [8], 12400 M⁻¹ s⁻¹.

The values are drawn from PMC6642264, “Hydrophobic recognition allows the glycosyltransferase UGT76G1 to catalyze its substrate in two orientations” (Nature Communications, 2019).
